# Reference: paper PMC9605988, “Juxtaposition of Bub1 and Cdc20 on phosphorylated Mad1 during catalytic mitotic checkpoint complex assembly” (Nature Communications, 2022)
# “Also recorded” adds a separate entry of the source.
# T1: Mad1CTD (unphosphorylated) (Homo sapiens, UniProt Q9Y6D9)
# T1 construct: the C-terminal domain of Mad1 (residue 597–718); made in house
# T1 sequence (Q9Y6D9 597-718): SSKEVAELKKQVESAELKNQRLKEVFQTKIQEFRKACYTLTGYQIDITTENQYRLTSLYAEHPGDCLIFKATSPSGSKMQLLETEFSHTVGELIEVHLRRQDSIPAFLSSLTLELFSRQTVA
# B1: Cdc20^N: N-terminal truncation of human Cdc20 (residues 1–73) (protein)
# chain: MAQFAFESDLHSLLQLDAPIPNAPPARWQRKAKEAAGPAPSPMRAANRSHSAGRTPGRTPGKSSSKVQTTPSK
# modifications: left off: His6, N-terminal, cleaved | MBP, N-terminal, cleaved
# What was measured:
# [1] = test system: pMad1CTD; test: 1H,15N HSQC / CON NMR titration with pMad1CTD; assay type: binding, human; conditions: pMad1CTD
# Description: (§1) Uniformly-labelled proteins were expressed in M9 minimal media (6 g/L Na2HPO4, 3 g/L KH2PO4, 0.5 g/L NaCl) supplemented with 1.7 g/L yeast nitrogen base without NH4Cl and amino acids (Sigma Y1251). 1 g/L ^15NH4Cl and 4 g/L unlabelled glucose were supplemented for ^15N labelling. For ^13C/ ^15N double-labelled samples, unlabelled glucose was replaced with 3 g/L ^13C-glucose. Prior to all NMR experiments, proteins were dialysed into 20 mM HEPES, pH 7.0, 100 mM NaCl and 1 mM TCEP.
# The following protein concentrations were used in NMR studies: ^1H,^15N HSQC of Mad1^CTD were collected with a 100 µM sample, whereas a 50 µM sample was used for titrations with Cdc20^N and Cdc20^α1. Cdc20^Box1 peptide was added at mM concentrations to minimise dilution during titration. […] Mad1^CTD was concentrated to 3 mM for titrations into Cdc20^N. ^1H,^15N HSQC of Mad2 were collected at 100 µM. All Mad2 NMR samples contain an R133A mutation to prevent Mad2 dimerisation. The C-Mad2 sample additionally contains an L13A mutation which favours the C-Mad2 state. Cdc20^MIM-bound C-Mad2 sample was prepared by adding a 1:2 excess of Cdc20^MIM peptide to an O-Mad2 sample with R133A mutation. To follow the O-to-C conversion of Mad2, the samples were prepared on ice and monitored using BEST ^1H,^15N-TROSY HSQC. The spectra were acquired with 16 scans and a recycle delay of 400 msec, giving an experimental time of 12 min per spectrum.
# Mad1^CTD and Mad2 experiments were performed using an in-house 800 MHz Avance III spectrometer and Cdc20^N experiments were performed using an in-house 700 MHz Avance II + spectrometer, both equipped with triple resonance TCI CryoProbes. To retrieve signals that suffer from exchange broadening, we also utilised the Bruker 950 MHz Avance III spectrometer located at MRC Biomedical NMR Centre (Francis Crick Institute). Mad1^CTD and Mad2 spectra were collected at 298 K. Cdc20^N spectra were collected at 278 K to minimise exchange broadening for the largely disordered Cdc20^N.
# (§2) For binding studies, the relative peak intensities were normalised to the C-terminal residue Ala718 of Mad1^CTD or Gly73 of Cdc20^N and expressed as PIbound/PIfree, with PIfree and PIbound being the peak heights of the free and bound forms, respectively. Weighted chemical shift perturbations were calculated using the equation[63]: Δδ = [(ΔδHNWHN)^2 + (ΔδNWN)^2)^2]^1/2 where ΔδHN and ΔδN are the chemical shift perturbations in ^1H and ^15N dimensions respectively. The weight factors were determined from the average variances of chemical shifts in the BMRB database, where WHN = 1 and WN = 0.16.
# [2] = test system: Mad1CTD R617E/K619D mutant; test: SEC-MALS, Cdc20N with Mad1CTD R617E/K619D; assay type: binding, human; conditions: 1:1.2 ratio Mad1CTD dimer to Cdc20N
# Description: (§3) Size-exclusion chromatography coupled with multi-angle static light scattering (SEC-MALS), was performed using an Agilent 1200 series LC system with an online Dawn Helios ii system (Wyatt) equipped with a QELS + module (Wyatt) and an Optilab rEX differential refractive index detector (Wyatt). About 100 μl purified protein at ~3.0 mg/ml was auto-injected onto Superdex 75 or a Superdex 200 Increase 10/300 GL column (GE Healthcare) and run at 0.5 ml/min. The molecular masses were analysed with ASTRA 7.3.0.11 (Wyatt). Data were plotted using Prism 8.4.3 (GraphPad Software, Inc). Purified Cdc20^N and Cdc20^N mutants were incubated with Mad1^CTD wild-type or mutants at a 1:1.2 ratio of Mad1^CTD dimer to Cdc20^N.
# [3] = target: T1, Mad1CTD (unphosphorylated); test: 1H,15N HSQC / CON NMR titration with unphosphorylated Mad1CTD; assay type: binding; conditions: residues 616-660 of Mad1CTD in HSQC; N-terminal half of Cdc20N in CON
# Description: as §1
# The following protein concentrations were used in NMR studies: ^1H,^15N HSQC of Mad1^CTD were collected with a 100 µM sample, whereas a 50 µM sample was used for titrations with Cdc20^N and Cdc20^α1. […] To follow the O-to-C conversion of Mad2, the samples were prepared on ice and monitored using BEST ^1H,^15N-TROSY HSQC. […]
# as §2
# [4] = test system: AF488-Bub1CD1:pMad1CTD complex; test: Fluorescence anisotropy: Cdc20N titrated into preformed AF488-Bub1CD1:pMad1CTD complex; assay type: binding, human; conditions: preformed AF488-Bub1CD1:pMad1CTD
# [5] = test system: pMad1CTD homodimer; test: AUC-SE (sedimentation equilibrium) of pMad1CTD and Cdc20N; assay type: binding, human; conditions: for calculated mass of major species (Cdc20N:pMad1CTD): 20 °C, expected 35.7 kDa
# Description: Sedimentation equilibrium experiments were carried out in a buffer of 20 mM HEPES pH 7.5, 100 mM NaCl and 1 mM TCEP. Samples were loaded into 12 mm six-sector cells, placed in an An-50Ti rotor and centrifugated at 10,200, 12,200 and 21,000 rpm at 20 °C until equilibrium had been reached using an Optima XL-I analytical ultracentrifuge (Beckman). The data were analysed in SEDPHAT 15.2b[68]. The partial-specific volumes (v-bar) were calculated using Sednterp[69]. The density and viscosity of the buffer were determined with a DMA 4500 M density metre (Anton Parr) and an AMVn viscometer (Anton Paar). Data were plotted with the program GUSSI[70].
# [6] = Aggregation or non-specific binding at high concentration in the fluorescence anisotropy assay; assay type: physicochemical; conditions: further titration of Cdc20N to saturation; total fluorescence intensity
# Description: (§4) All reactions were completed in a buffer of 25 mM HEPES pH 7.75, 1 mM TCEP, 100 mM NaCl, 0.05% (v/v) Tween-20. […] Measurements were performed with a PheraStar plate reader FSX plate reader (BMG Labtech) using an optic module for λex = 485 nm, λem = 520 nm. Reactions were carried out in a total volume of 40 μl at 25 °C in a black, flat-bottom, non-binding surface 384-well plate (Corning). All experiments were performed as technical triplicates and data were analysed in PRISM 9.3.1 (GraphPad Software).
# [7] = target: T1, Mad1CTD (unphosphorylated); test: SEC-MALS, Cdc20N with unphosphorylated Mad1CTD; assay type: binding; conditions: 1:1.2 ratio Mad1CTD dimer to Cdc20N
# Description: as §3
# [8] = test system: pMad1CTD (Mad1CTD pT716); test: SEC-MALS, Cdc20N with pMad1CTD; assay type: binding, human
# Description: as §3
# [9] = test system: AF488-Bub1CD1:Mad1CTD complex (unphosphorylated); test: Fluorescence anisotropy: Cdc20N titrated into preformed AF488-Bub1CD1:Mad1CTD complex; assay type: binding, human
# Description: as §4
molecule,measurement,setting,value
B1,NMR signal attenuation / line broadening,[1],more pronounced and extensive; also recorded: More significant signal attenuation
same,binding by SEC-MALS,[2],did not bind
same,NMR signal attenuation / line broadening,[3],Significant signal attenuation; also recorded: substantial signal attenuation
same,change in fluorescence anisotropy on Cdc20N titration (competition test),[4],increased the fluorescence anisotropy
same,calculated mass of major species (Cdc20N:pMad1CTD),[5]; 20 µM Mad1CTD + 40 µM Cdc20N,32.6 kDa
same,calculated mass of major species (Cdc20N:pMad1CTD),[5]; 20 µM Mad1CTD + 80 µM Cdc20N,35.9 kDa
same,stoichiometry on pMad1CTD homodimer,[5]; even with four-fold molar excess of Cdc20N,only a single copy of Cdc20^N bound
same,aggregation or non-specific binding to the plate,[6],large increases in the total fluorescence intensity indicating aggregation or non-specific binding to the plate
same,binding by SEC-MALS,[7],did not bind; also recorded: no binding
same,binding by SEC-MALS,[8]; 1:1.2 ratio Mad1CTD dimer to Cdc20N,formed a stable complex
same,observed mass of pMad1CTD:Cdc20N complex,"[8]; SEC-MALS, expected 36 kDa for pMad1CTD dimer with one Cdc20N",38 kDa
same,change in fluorescence anisotropy on Cdc20N titration (competition test),[9],increased the fluorescence anisotropy
